Measurements published in the DeepSol protein solubility set.

Assay: soluble on expression in E. coli; label from the status in PepcDB or PDB records
For “MSTAAKQNRSTSRVSKKKTAAPKEGAAKKSDKGHKYEYVELAKASLTSAQPQHFYAVVIDATFPYKTNQERYICSLKIVDPTLYLKQQKGAGDASDYATLVLYAKRFEDLPIIHRAGDIIRVHRATLRLYNGQRQFNANVFYSSSWALFSTDKRSVTQEINNQDAVSDTTPFSFSSKHATIEKNEISILQNLRKWANQYFSSYSVISSDMYTALNKAQAQKGDFDVVAKILQVHELDEYTNELKLKDASGQVFYTLSLKLKFPHVRTGEVVRIRSATYDETSTQKKVLILSHYSNIITFIQSSKLAKELRAKIQDDHSVEVASLKKNVSLNAVVLTEVDKKHAALPSTSLQDLFHHADSDKELQAQDTFRTQFYVTKIEPSDVKEWVKGYDRKTKKSSSLKGASGKGDNIFQVQFLVKDASTQLNNNTYRVLLYTQDGLGANFFNVKADNLHKNADARKKLEDSAELLTKFNSYVDAVVERRNGFYLIKDTKLIY”, the “soluble on expression in E. coli” value was “soluble”. In the case of “MSTDTSGVGVREIDAGALPTRYARGWHCLGVAKDYLEGKPHGVEAFGTKLVVFADSHGDLKVLDGYCRHMGGDLSEGTVKGDEVACPFHDWRWGGDGRCKLVPYARRTPRMARTRSWTTDVRSGLLFVWHDHEGNPPDPAVRIPEIPEAASDEWTDWRWNRILIEGSNCRDIIDNVTDMAHFFYIHFGLPTYFKNVFEGHIASQYLHNVGRPDVDDLGTSYGEAHLDSEASYFGPSFMINWLHNRYGNYKSESILINCHYPVTQNSFVLQWGVIVEKPKGMSEEMTDKLSRVFTEGVSKGFLQDVEIWKHKTRIDNPLLVEEDGAVYQLRRWYEQFYVDVADIKPEMVERFEIEVDTKRANEFWNAEVEKNLKSREVSDDVPAEQH”, the “soluble on expression in E. coli” value was “soluble”. In the case of “MSTGTPTTQKVVKTSIRLGPVNPPTPTRNTQGGHGFSAEFLEYRRRRQERHTVRLAKLPNETLIIGGANPFDARNVPEAIKKFRDLVDEKIGDKVHKKDANKSKIVFREEEEETQNGTITID”, the “soluble on expression in E. coli” value was “not soluble”. In the case of “MSTHFGYKTVEADKKADLVAGVFHSVAAKYDIMNDVMSFGIHRFWKRYTIEVSGARPGMKVLDLAGGTGDLTAKFSHLVGDKGEVVLADINDSMLKVGRTKLRDRGIVSNVSYVQANAEALPFPDNHFDIITIAFGLRNVTDKDAALRSMNRVLKPGGKLLVLEFSKPQHEVMRKVYDLYSFKVLPKMGQLITKDADSYEYLAESIRMHPDQDTLKQMMVDAGFEQVDYTNMTDGIVALHRGYKLEHHHHHH”, the “soluble on expression in E. coli” value was “not soluble”. In the case of “MSTIDFRPYGGFIFDMDGTLIDTMPAHLAAWQATADRFDFPFCQEWLHSLGGMPSFKIVAELNRHYGLSLDPQTVSKFKMETFAAMELQGDVIQCTGIVLEEYLGQKKIAVGTGSQRESAMRLLSHAGLIDRLDAVVTASDVENHKPCPDTFLLAADRLGIDAQNCLVFEDTELGKRAAHSAGMDCVMVEGNNLVFYPKR”, the “soluble on expression in E. coli” value was “not soluble”. For “MSTKNRTRRTTTRNIRFPNQMIEQINIALDQKGSGNFSAWVIEACRRRLTSEKRAYTSIKSDEE”, the “soluble on expression in E. coli” value was “soluble”. For “MSTKPPIERIMYIQMRTSLEMFRSDLVDLEALANAAKEALEQLPYIPKEPCGKGEDDPLSGPESALRTGRLCGLVCCTATAAENALSTCSKLIDWAYANEPDGVDDAVLADDDDDDDDDDEGGGNGANGGGGTNGGGDGSNGSGNGSPPDGGGVGAAPSPGRGELAETRPSRSGVALDLTPAPAPAGTPVA”, the “soluble on expression in E. coli” value was “not soluble”.
